Values of other authors in patent US20200354411A1, “Chimeric Molecule for Targeting c-Myc in Cells” (priority 2017, published 2020).

System: A549 cells
Settings: shown in the art

B1: Omomyc: myc dominant negative peptide able to bind E-Box promoter and prevent c-myc binding, SEQ ID NO: 6 (peptide)
chain: TEENVKRRTHNVLERQRRNELKRSFFALRDQIPELENNEKAPKVVILKKATAYILSVQAETQKLISEIDLLRKQNEQLKHKLEQLRNSCA
modifications: Omomyc
concentration at which treated cells showed apoptosis: 10 µM
